For 1 molecule, OD results are on record in US20260209372A1.

This assay addresses recombinant human CD30L protein (human) (UniProt P32971). Kind of assay: ELISA. In general terms: An ELISA detects its analyte on a solid surface through an enzyme-linked reagent.

Chain of recombinant human CD30L protein (human) (P32971 63-234 limits assumed): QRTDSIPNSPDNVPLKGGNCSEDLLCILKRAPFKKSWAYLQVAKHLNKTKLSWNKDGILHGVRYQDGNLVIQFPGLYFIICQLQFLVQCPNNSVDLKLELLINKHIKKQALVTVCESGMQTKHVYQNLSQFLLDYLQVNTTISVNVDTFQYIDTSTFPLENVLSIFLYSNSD

B1: Clone 59 (antibody, V domains shown)
VH: QVQLVESGGGVVQPGRSLRLSCAASGFTFSIYGMHWVRQAPGKGLEWVAVIWYDGSNKYYVDSVKGRFTISRDNSKNSLYLQMNSLRAEDTAVYYCAREGNLFDYWGQGTLVTVSS
VL: DIQMTQSPSTLSASVGDRVTITCRASQSISSWLAWYQQKPGKAPKLLIYKASSLESGVPSRFSGSGSGTEFTLTISSLKPDDFATYYCQQYKSYYTFGQGTKLEIK
As to B1, the OD was 0.06 OD.
